Substitutions are numbered along the chain they refer to.

This assay deals with T1, hK1 (human tissue kallikrein 1), recombinant (human, UniProt P06870 25-262).
T1 construct: Expressed in P. pastoris from KLK1 cDNA and purified; enzymatically active; also called KLK1; Recombinant (Pichia) Kallikrein
Description: SPR.

B1: M0105-B06 (Fab, V domains shown)
VH: EVQLLESGGGLVQPGGSLRLSCAASGFTFSHYAMGWVRQAPGKGLEWVSRIWPSGGHTQYADSVKGRFTISRDNSKNTLYLQMNSLRAEDTAMYYCATGYSSTWGAFDIWGQGTMVTVSS
VL: DIQMTQSPSSLSASVGDRVTLTCRASQSIANYLNWYQQKPGKAPKLLVYAASRLHSGVPSRFSGRGSGTDFTLTITSLEPDDLATYYCQQSHASPLTFGGGTKVEIKR
The Kd is the constant that tells how readily two partners part at equilibrium. As usually defined, the koff is a measure of how fast the partners let go of each other. In general, kon refers to the rate constant with which the complex forms. With B1, the Kd stood at 8.81 nM, the koff worked out at 0.0036 s⁻¹ and the kon is 409000 M⁻¹ s⁻¹.

B2: M0135-C11 (Fab, V domains shown)
VH: EVQLLESGGGLVQPGGSLRLSCAASGFTFSNYSMQWVRQAPGKGLEWVSGIRPSGGSTRYADSVKGRFTISRDNSKNTLYLQMNSLRAEDTAVYYCAVSTGGYYYGMDVWGQGTTVTVSS
VL: DIQMTQSPSSVSASVGDRVTITCRASQGISSWLAWYQQKPGKAPKLLIYAASSLQSGVPSRFSGSGSGTDFTLTISSLQPEDFATYYCQQANSFPSLTFGGGTKVEIKR
Consider B2, for which the Kd was found to be 6.85 nM, the koff was determined as 0.00231 s⁻¹ and the kon came to 337000 M⁻¹ s⁻¹.

B3: M0135-B05 (Fab, V domains shown)
VH: EVQLLESGGGLVQPGGSLRLSCAASGFTFSHYLMDWVRQAPGKGLEWVSVIYPSGGHTNYADSVKGRFTISRDNSKNTLYLQMNSLRAEDTAVYYCARVGVWYGMDVWGQGTTVTVSS
VL: DIQMTQSPSSLSASVGDRVTITCRASQSISTYLNWYQQKPGKAPNLLIYAASSLQSGVPSRFSGSGSGTDFTLTVSSLQPEDFGTYYCQQYNSFPFSFGQGTRLEINR
With B3, the Kd is 5.9 nM, the koff worked out at 0.000655 s⁻¹ and the kon amounted to 111000 M⁻¹ s⁻¹.

B4: M0107-F11 (Fab, V domains shown)
VH: B3 VH with L33Q, D35H, V50S, Y52R, H57R, N59A
VL: DIQMTQSPGTLSLSPGERATLSCRASQSVSGSYLAWYQQKPGQAPSLLIYGAYSRATGIPDRFSGSGSGTDFTLTISRLEPEDFAVYYCQHYGSSPRTFGGGTKVEIKR
As for B4, the Kd was determined as 9.71 nM, the koff was determined as 0.0066 s⁻¹ and the kon amounted to 680000 M⁻¹ s⁻¹.

B5: M0095-A11 (Fab, V domains shown)
VH: B3 VH with H31P, L33M, D35G, V50S, Y52R, P53S, H57A, N59A, V93T
VL: DIQMTQSPATLSLSPGERATLSCRASQSVSSYLAWYQQKPGQAPRLLIYDASNRATGIPARFSGSGSGTDFTLTISSLEPEDFAVYYCQQRSNWPPYTFGQGTKLEIKR
Turning to B5, the Kd came to 7.22 nM, the koff was 0.00379 s⁻¹ and the kon was 525000 M⁻¹ s⁻¹.

B6: M0110-D11 (Fab, V domains shown)
VH: B3 VH with D35Y, V50R, Y52G, H57W, N59K
VL: AQSELTQPASVSGSPGQSITISCTGTSTDVGGYNYVSWYQKHPGKAPKLMIYDVSNRPSGVSNRFSGSKSGNTASLTISGLQAEDEADYYCSSYTNTITVVFGGGTKLTVLG
Take B6: the Kd came to 6.38 nM, the koff is 0.00134 s⁻¹ and the association rate constant (kon) worked out at 210000 M⁻¹ s⁻¹.

B7: M0092-F08 (Fab, V domains shown)
VH: B3 VH with L33P, D35I, V50G, P53S, H57T, N59K
VL: DIQMTQSPATLSLSPGERATLSCGASQSVSSSYLAWYQQKPGLAPRLLIYDASSRATGIPDRFSGSGSGTDFTLTISSLQPEDFATYYCLHDYNFPFTFGPGTKVDIKR
As to B7, the Kd came to 7.27 nM, the koff was 0.00158 s⁻¹ and the on-rate constant (kon) was 218000 M⁻¹ s⁻¹.

B8: M0130-B02 (Fab, V domains shown)
VH: B3 VH with H31N, L33S, D35V, V50R, P53S, H57S, N59H
VL: AQSALTQPASVSGSPGQSITISCTDTSGNVGSYNLVSWYQQHPDKAPKLMIFEVSRRPSGVSDRFSGSKSGNTASLTISGLQAEDEADYYCCSYAGSNTYVFGTGTKVTVLG
With B8, the Kd was determined as 7.8 nM, the koff was determined as 0.00307 s⁻¹ and the kon stood at 394000 M⁻¹ s⁻¹.

B9: M0135-E10 (Fab, V domains shown)
VH: EVQLLESGGGLVQPGGSLRLSCAASGFTFSWYRMSWVRQAPGKGLEWVSSISPSGGPTKYADSVKGRFTISRDNSKNTLYLQMNSLRAEDTAVYYCARPSGDSSVYRPFASWGQGTLVTVSS
VL: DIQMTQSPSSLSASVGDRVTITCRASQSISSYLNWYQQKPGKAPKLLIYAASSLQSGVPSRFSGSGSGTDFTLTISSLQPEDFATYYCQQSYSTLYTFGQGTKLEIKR
On to B9, for which the Kd came to 7.57 nM, the koff was found to be 0.00206 s⁻¹ and the kon was 272000 M⁻¹ s⁻¹.

B10: M0108-E11 (Fab, V domains shown)
VH: EVQLLESGGGLVQPGGSLRLSCAASGFTFSNYSMMWVRQAPGKGLEWVSSIYPSGGFTKYADSVKGRFTISRDNSKNTLYLQMNSLRAEDTAVYYCARVGFYGGFVWGQGTTVTVSS
VL: B8 VL with S3Y, A4E, D25A, G28S, N29D, V30L, L35F, D63N
B10: the Kd amounted to 8.5 nM, the koff was found to be 0.00355 s⁻¹ and the kon was determined as 418000 M⁻¹ s⁻¹.

B11: M0097-D04 (Fab, V domains shown)
VH: EVQLLESGGGLVQPGGSLRLSCAASGFTFSHYFMHWVRQAPGKGLEWVSYISSSGGLTGYADSVKGRFTISRDNSKNTLYLQMNSLRAEDTAVYYCARRGPVYYYDSSGSHSAFDIWGQGTMVTVS
VL: AQSELTQPPSASGTPGQRVTISCSGSSSNIGSNYVYWYQQLPGMAPKLLIYRNNQRPSGVPDRFSGSKSGTSASLAISGLRSEDEADYYCAAWDDSMSGVVFGGGTKLTVLS
In the case of B11, the Kd came to 8.28 nM, the koff was determined as 0.00168 s⁻¹ and the kon worked out at 203000 M⁻¹ s⁻¹.

B12: M0098-E01 (Fab, V domains shown)
VH: EVQLLESGGGLVQPGGSLRLSCAASGFTFSMYGMTWVRQAPGKGLEWVSGISPSGGRTYYADSVKGRFTISRDNSKNTLYLQMNSLRAEDTAVYYCAKHRRDYVWWTYGMDVWGQGTTVTVSS
VL: DIQMTQSPATLSLSPGERATLSCRASQSVSGFLAWYQQKPGQAPRLLIYDASNRATGIPARFSGSGSGTDFTLTITRLEPEDFAVYYCQQYGDSSPITFGPGTRLEIKR
For the molecule B12, the Kd came out at 6.8 nM, the koff is 0.00101 s⁻¹ and the kon worked out at 148000 M⁻¹ s⁻¹.

B13: M0104-B12 (Fab, V domains shown)
VH: EVQLLESGGGLVQPGGSLRLSCAASGFTFSIYAMIWVRQAPGKGLEWVSSIYSSGGPTQYADSVKGRFTISRDNSKNTLYLQMNSLRAEDTAVYYCARGRRTYYYDSSGYYKYAAFDIWGQGTMVTVSS
VL: DIQMTQSPSSLSASVGDRVTITCRASQAISNYLAWYQQQPGKVPKLLISAASTLQSGVPSRFSGSGSGTDFTLSISSLQPEDVATYYCQTYYSVPFTFGPGTKVDFKR
As for B13, the Kd turned out to be 7.41 nM, the koff was determined as 0.00171 s⁻¹ and the kon is 230000 M⁻¹ s⁻¹.

B14: M0127-C06 (Fab, V domains shown)
VH: EVQLLESGGGLVQPGGSLRLSCAASGFTFSNYPMHWVRQAPGKGLEWVSYIGPSGGWTRYADSVKGRFTISRDNSKNTLYLQMNSLRAEDTAVYYCARAPSGYWGQGTLVTVSS
VL: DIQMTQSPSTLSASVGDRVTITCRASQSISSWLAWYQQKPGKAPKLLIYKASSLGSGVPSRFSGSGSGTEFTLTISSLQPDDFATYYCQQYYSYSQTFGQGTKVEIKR
Turning to B14, the dissociation constant (Kd) was 8.69 nM, the koff worked out at 0.00575 s⁻¹ and the kon came out at 662000 M⁻¹ s⁻¹.

B15: M0109-A11 (Fab, V domains shown)
VH: EVQLLESGGGLVQPGGSLRLSCAASGFTFSNYTMTWVRQAPGKGLEWVSVIYPSGGHTTYADSVKGRFTISRDNSKNTLYLQMNSLRAEDTAMYYCARGGRWFSLDYWGQGTLVTVSS
VL: B6 VL with T28S, V36L, K41Q, D53G, N63T, N96S, I98G, V100R, K107R
Take B15: the Kd amounted to 7.45 nM, the koff was determined as 0.0035 s⁻¹ and the association rate constant (kon) was 470000 M⁻¹ s⁻¹.

B16: M0107-D01 (Fab, V domains shown)
VH: B15 VH with N31W, T33G, T35G, Y52R, H57T, T59R, M93V, W102Y, F103Y
VL: AQSELTQPASVSGPPGQSITISCTGTSSDVGGYNYVSWYQQHPGKAPKLIIYEVSNRPSGVSYRFSASKSDNTASLTISGVQAEDEADYYCSSYKRGGTYVFGTGTTVIVL
Regarding B16, the dissociation constant (Kd) came to 9.06 nM, the koff is 0.00812 s⁻¹ and the kon was found to be 896000 M⁻¹ s⁻¹.

B17: M0093-G06 (Fab, V domains shown)
VH: EVQLLESGGGLVQPGGSLRLSCAASGFTFSNYHMDWVRQAPGKGLEWVSVIGPSGGFTRYADSVKGRFTISRDNSKNTLYLQMNSLRAEDTAVYYCARALGGSLDYWGQGTLVTVSS
VL: AQSALTQPRSVSGSLGQSVTISCTGSTSDVGGYTYVSWYQQEPGKAPKLMIHDVSKRPSGVPDRFSGSKSGNTASLIISGLQAEDEADYYCCSYAGSYSYVFGTGTKVTVLG
For the molecule B17, the equilibrium dissociation constant (Kd) was found to be 8.4 nM, the koff was 0.00313 s⁻¹ and the kon turned out to be 372000 M⁻¹ s⁻¹.

B18: M0136-F08 (Fab, V domains shown)
VH: EVQLLESGGGLVQPGGSLRLSCAASGFTFSHYKMGWVRQAPGKGLEWVSSIRPSGGATKYADSVKGRFTISRDNSKNTLYLQMNSLRAEDTAVYYCARVGIWDAFDIWGQGAMVTVSS
VL: DIQMTQSPGTLSLSPGERATLSCRASQSVSSSYLAWYQQKPGQAPRLLIYDASNRATGIPARFSGSGSGTDFTLTISSLEPEDFAVYYCQQWDTFGQGTKLEIKR
Turning to B18, the Kd came out at 5.97 nM, the koff worked out at 0.00284 s⁻¹ and the kon was found to be 476000 M⁻¹ s⁻¹.

B19: M0110-H11 (Fab, V domains shown)
VH: B18 VH with G35E, S50R, A57V, A97T, V99G, I101L, A112T
VL: DIQMTQSPSSLSASVGDRVTITCRASQSISSYLNWYQQKPGKAPKLLIYAASSLQSGVPSRFSGSGSGTDFTLTISSLHPEDFATYYCQQTYSTLFTFGPGTKVHIKR
For the molecule B19, the dissociation constant (Kd) amounted to 6.17 nM, the koff came to 0.00601 s⁻¹ and the kon is 975000 M⁻¹ s⁻¹.
